Measurements from the RNAGym collection of RNA variant scans (doi:10.1073/pnas.2313332121).
This sample holds only a part of the variants without activity.

B1: TPR 5TU (parent)
chain: GGAUCUUCUCGAUCUAACAAAAAAGACAAAUCUGCCACAAAGCUUGAGAGCAUCUUCGGAUGCAGAGGCGGCAGCCUUCGGUGGCGCGAUAGCGCCAACGUUCUCAACUAUGACACGCAAAACGCGUGCUCCGUUGAAUGGAGUUUAUCAUG

Variants of: B1
Assay: polymerase ribozyme fitness, log enrichment relative to wild type (log ratio); higher = more active; in vitro selection for triplet polymerase activity
Outline: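 Streptavidin-bead capture of gel-excised extended constructs, followed by RT-PCR, closed a single triplicate in vitro selection round. That round began by annealing PCR-built, transcribed mutant libraries of each subunit of a heterodimeric triplet polymerase ribozyme with a biotinylated primer, the partner subunit and triplets, then incubating them frozen at −7 °C. After Illumina sequencing of inputs and outputs, genotypes needed ≥10 input reads and ≥1 read per output. Fitness is the base-2 logarithm of genotype enrichment over wild-type enrichment, using inverse-variance-weighted replicate averages.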

| Variant | polymerase ribozyme fitness (log ratio) |
| --- | --- |
| GGAUCUUCUCGAUCUAACAAAAAAGACAAAUCUGCCACAAAGCUUGAGUGCAUCAUCGGAUGCAGAGGCGGCAGCCUUCGGUGGCGCGAUAGCGCCAACGUUCUCAACUAUGACACGCAAAACGCGUGCUCCGUUGAAUGGAGUUUAUCAUG | -1.02 |
| GGAUCUUCUCGAUCUAACAAAAAAGACAAAUCUGCCACAAAGCUUGAGUGCAUCUUCGGACGCAGAGGCAGCAGCCUUCGGUGGCGCGAUAUCGCCAACGUUCUCAACUAUGACACGCAAAACGCGUGCUCCGUUGAAUGGAGUUUAUCAUG | ≤ -4.2 |
| GGAUCUUCUCGAUCUAACAAAAAAGACAAAUCUGCCACAAAGCUUGAGUCCAUCUUUGGAUGCAGAGGCGGCAGCCUUCGGUGGCGCGCUAGCGCAAACGUUCUCAACUAUGACACGCAAAACGCGUGCUCCGUUGAAUGGAGUUUAUCAUG | -3.23 |
| GGAUCUUCUCGAUCUAACAAAAAAGACAAAUCUGCCACAAAGCUUGAGUGCAUCUUCGCAUGCAGAGGCGGCGGCCUUCGGUGGCGCGAUAGCGCCAACGUUCUCAACUAUGACACGCCAAACGCGUGCUCCGGUAAAUGGAGUUUAUCAUG | -3.39 |
| GGAUCUUCUCGAUCUAACAAAAAAGACAAAUCUGCCACAAAGCUUGAGUGCGUCUUCGGAUGCAGAGGCGGCAGCCUUCGGUGGCGCGAUAGCGCCAACGUUCUCAACUAUGACACGCAAAACGCGUGCUCCGUUGAAUGGAGUUUAUCAUG | -1.71 |
| GGAUCUUCUCGAUCUAACAAAAAAGACAAAUCUGCCACAAAGCUUGAGUGCAUCUUCGGAUGCAGAGGCGGCAGCCUUCGGUGGCGCGAUAGCACCAACGUUCUCAACUAUGACACGCCAAACGCGUGCUCCGUUGAAUGGAGUUUAUCAUG | -1.28 |
| GGAUCUUCUCGAUCUAACAAAAAAGACAAAUCUGCCACAAAGCUUGAGUGCAUCUUCGGAUGCAGAGGCGGCAACCUUAGGUGGCGCGAAAGCACCAACGUUCUCAACUAUGACACGCAAAAGGCGUGCUCCUUUGAAUGGAGUUUAUCAUG | ≤ -4.2 |
| GGAUCUUCUCGAUCUAACAAAAAAGACAAAUCUGCCACAAAGCUUGAGUGCAUCUUCGGAUGCAGAGGCGGCAGCCUUCGGUGGUGCGAUAGCGCCAACGUUCUCAACUAUGACACGCAAAACGCGUGCUCCGUUGAAUGGAGUUUAACAUG | ≤ -4.2 |
| GGAUCUUCUCGAUCUAACAAAAAAGACAAAUCUGCCACAAAGCUUGAGUGCAUCUUCGGAUGCAGAGGCGGCAGCCUUCGGUGGCGCGAUAGCGCCAACGUUCUCAACUAUGACACGCAAAACGCGUGCUCCGUUGAAUGGAGUUUACCAUG | -3.02 |
| GGAUCUUCUCGAUCUAACAAAAAAGACAAAUCUGCCACAAAGCUUGAGUUCAGCUUCGGAUGCAGAGGCGGCAGCCUUCGGUGGCGCGAUAGCGCCAACGUUCUCUACUAUGACACGCAAAGCGCGUGCUCCGUUGAAUGGAGUUUAUCAUG | ≤ -4.2 |
| GGAUCUUCUCGAUCUAACAAAAAAGACAAAUCUGCCACAAAGCUUGAGUGCGUCUUCGGAGGCAGAGGCGGCAGCCUUCGGUGGCGCGAUAGUGCCAACGUUCUCAACUAUGACACGCAAAACGCGUGCUCCGUUGAAUGGAGUUUAUCAUG | -3.49 |
| GGAUCUUCUCGAUCUAACAAAAAAGACAAAUCUGCCACAAAGCUUGAGUGCAUCUGUGGAUGCAGAGGCGGCAGCCUUCGGUGGCGCGAUAGCGCUAACGUGCUCAACUAUGACACGCAAAACGCGUGCUCCGUUGAAUGGAGUUUAUCAUG | -1.32 |
| GGAUCUUCUCGAUCUAACAAAAAAGACAAAUCUGCCACAAAGCUUGAGAACCUCUUGGGAUGCAGAGGCGGCAGCCUUCGGUGGCGCGAUAGUGCCAACGUUCUCAACUAUGACACGCAAAACGCGUGCUCCGUUGAAUGGAGUUUAUCAUG | -3.12 |
| GGAUCUUCUCGAUCUAACAAAAAAGACAAAUCUGCCACAAAGCUUGAGUGCAUCUUCGGAUGCAGAGGCGGCAGCCUUCGGUGGCGCGAUAGCGCCAACGUUCUCAACUAUGACACGCAAAACGCGUGCUCCGUUGAUUGGAGUUUAUCAUG | ≤ -4.2 |
| GGAUCUUCUCGAUCUAACAAAAAAGACAAAUCUGCCACAAAGCUUGAGUGCAUCUACGGAUGCAGAGGCGGCAGUCUUCGGUGGCGCGAUAGCGCCAACGUUCUCAAAUAGGACACGCAAAACGCGUGCUCCGUUGAAUGGAGUUGAUCAUG | ≤ -4.2 |
| GGAUCUUCUCGAUCUAACAAAAAAGACAAAUCUGCCACAAAGCUUGAGUGCAUCUUCGGAUGCAGAGGCGGCAGCCUUCGGUGGCGCGAUGGCGCCAACGUUCUCAACUAUGACACGCAAAACGCGUGCACCGUUGAUUGGAGUUUAUCAUG | ≤ -4.2 |
| GGAUCUUCUCGAUCUAACAAAAAAGACAAAUCUGCCACAAAGCUUGAGUGCAUCUUCGGAGGCAGAGGCGGCAGCCUUCGGUGGCGCGAUAGAGCCAACGUUCUCAAGUAUGAAACGCAAAACGCGUGCUCCGAUGAAUGGAGUUUAUGAUG | ≤ -4.2 |
| GGAUCUUCUCGAUCUAACAAAAAAGACAAAUCUGCCACAAAGCUUGAGUGCAUCUUCGGAUGCAGAGGCGGCAGCCUUCGGUGACGCGAUAGCGCCAACGUUCUCAACUAUGACACGCAAAACGCGUGCUCCGUUUAAUGGAGUUUAUCAUG | -3.29 |
| GGAUCUUCUCGAUCUAACAAAAAAGACAAAUCUGCCACAAAGCUUGAGUGCAUCUUCGGAUGCAGAGGCGGCGGCCUUCGGUGGCGCGAUAGCGCCAACGUUCUCAACUAUGACACGCAAAACGCGUGCUCCGUUGAAUGGAGUUUAUCAUG | -2.09 |

| Variant | polymerase ribozyme fitness (log ratio) |
| --- | --- |
| GGAUCUUCUCGAUCUAACAAAAAAGACAAAUCUGCCACAAAGCUUGAGGGCAUCUUCGGAUGCAGAGGCGGCAGCCUUCGGUGGCGCGAUAGCGCCAACGUUCCCAACUAUGACACGCAAAACGCGUGCUCCGUUGAAUGGAGUUUAUGAUG | ≤ -4.2 |
| GGAUCUUCUCGAUCUAACAAAAAAGACAAAUCUGCCACAAAGCUUGAGUGCAUCUUCGGAUGCAGAGGCGGCAGCCUUCGGUGGCGCGAUAGAGCCAACGUUUUCAACUAUGACACGCUAAACGCGUGCUCCGUUGAAUGGAGUUUAUCAUG | ≤ -4.2 |
| GGAUCUUCUCGAUCUAACAAAAAAGACAAAUCUGCCACAAAGCUUGAGUGCUUCUUCGGAUGCAGAGGCGGCAGCCUUCGGUGGCGCGGUAGCGCCAGCGUUCUCAACUAUGACACGCAAAACGCGUGCUCCGUUGAAUGGAGUUUAUCAUG | -3.98 |
| GGAUCUUCUCGAUCUAACAAAAAAGACAAAUCUGCCACAAAGCUUGAGUUCAUCUUCGGAUGCAGAGGCGGCAGCCUUCGGUGGCGCGAUAGCGCCAACGUUCUCAACUAUGACACGCAAAACGUGUGCUCCGUUGAAUGGAGUUUAUCAUG | -1.77 |
| GGAUCUUCUCGAUCUAACAAAAAAGACAAAUCUGCCACAAAGCUUGAGUGCCUCUUCGAAUGCAGAGGCGGCUGCGUUCGGUGUCGCGAUAGCGCCAACGUUCUCAACUAUGACACGCAAAACGCGUGCUCCGUUGAAUGGAGUUUAUCAUG | ≤ -4.2 |
| GGAUCUUCUCGAUCUAACAAAAAAGACAAAUCUGCCACAAAGCUUGAGUGCAUCUUCGUAUGCAGAGGCGGCAGCCUUCGGUGGCGCGAUAGCGCCAACGUUCUCAACUAUGACACGCAAAACGCGUGCUCCGUUGAAUGGAGUUUAUCAUG | -0.317 |
| GGAUCUUCUCGAUCUAACAAAAAAGACAAAUCUGCCACAAAGCUUGAGUGCAUCUUCGGAUGCAGAGGCGGCAGUCUUCAGUGGCGCGAUAGCGCUCACGUUCUCAACUAUGACACGCAAAACGCGUGCUCCGUUGAAUGGAGUAGAGCAUG | ≤ -4.2 |
| GGAUCUUCUCGAUCUAACAAAAAAGACAAAUCUGCCACAAAGCUUGAGUGCAUCUGUGGAUGCAGAGGCGGCAGCCUUCGGUGGCGCGAUAGCGCUAACGUGCUCAACUAUGACACGCAAAACGCGUGCUCCGUUGAAUGGAGUUUGUCAUG | -3.99 |
| GGAUCUUCUCGAUCUAACAAAAAAGACAAAUCUGCCACAAAGCUUGAGUGCAUCUUCGGAUGCAGAGGCGGCAGACUUCGGUGGCGCGAUGGCGCCAACGUUCUCAACUAUGACACGCAAAACGCGUGCUCCGUUGAAUGGAGUUUAUCAUG | -4.15 |
| GGAUCUUCUCGAUCUAACAAAAAAGACAAAUCUGCCACAAAGCUUGAGGGCAUCUUCGGAUGCAGAGGCGGCAGCCUUCGGUGGCGCGAUAGCGCCAACGUUCUCAACUAUGACACGCAAAACGCGUGCUCCGUCGAAUGGAGUCUAUCAUG | -2.6 |
| GGAUCUUCUCGAUCUAACAAAAAAGACAAAUCUGCCACAAAGCUUGAGAACCUCGUCGGAUGCAGAGGCGGCAGCCUUCGGUGGCGCGAUAGCGCCAACGUUCUCAACUAUGACACGCAAAACGCGUGCUCCGUUGAAUGCAGUUUAUCAUG | ≤ -4.2 |
| GGAUCUUCUCGAUCUAACAAAAAAGACAAAUCUGCCACAAAGCUUGAGUGUAUCUUCGGAUGCAGAGGCGGCAGCCUUAGGUGGCGCGAUAGCGCCAACGUUCUCAACUAUGACACGCAGAAAGCGUGCUCCGUUGAAUGGAGUUUAUCAUG | ≤ -4.2 |
| GGAUCUUCUCGAUCUAACAAAAAAGACAAAUCUGCCACAAAGCUUGAGUGCAUCAUCGGAUGCAGAGGCGGCAGCCUUCGGUGGCGCGAUAGCGCAAACGUUCUCAACUAUGACACGCAAAACGCGUGCUCCGUUGAAUGGAGUUUAUCAUG | -1.06 |
| GGAUCUUCUCGAUCUAACAAAAAAGACAAAUCUGCCACAAAGCUUGAGUACAUCUUCGGCUGCAGAGGCGGCAGCCUUCGGUGGCGCGAUAGCGCCAACGUUCUCAACUAUGACACGCAAAACGCGUGCUCCGUUGAAUGGAGUUUAUCAUG | -2.62 |
| GGAUCUUCUCGAUCUAACAAAAAAGACAAAUCUGCCACAAAGCUUGAGUGCAUCUUCGGAUGCAGAGGCGGCAGCCUUCGGGGGCGCGAUAGCGCCAACGUUCUUAACUAUGACAUGCAAAACGCGUGCUCCGUUGAAUGGAGUAUAUCAUG | -2.58 |
| GGAUCUUCUCGAUCUAACAAAAAAGACAAAUCUGCCACAAAGCUUGAGUGCAUCUUCUGAUGCAGAGGCGGCAGCCUACGGUGGCGCGAUAGCGCGAACGUUUUCAACUAUGACACGCAAAACGCGUGCUCCGUAGAAUGGAGUUUAUCAUG | ≤ -4.2 |
| GGAUCUUCUCGAUCUAACAAAAAAGACAAAUCUGCCACAAAGCUUGAGUGCCUCUUCGGAUGCAGAGGCGGCAGCCUUCGGUGGCGCGGUAGCGUCAACGUUCUCAACUAUGACACGCAAAACGCGUGCUCCGUUGAAUGGAGUUUAUCAUG | -2.69 |
| GGAUCUUCUCGAUCUAACAAAAAAGACAAAUCUGCCACAAAGCUUGAGUGCAUCUUCGGAUGCAGAGGCGGCAGUCUUCGGUGGCGCGAUAGCGCCAACGUGCUCAACUAUGACACGCAAAACGCGUGCUCCGUUGAAUGGAGUUUAUCAUG | -2.65 |
| GGAUCUUCUCGAUCUAACAAAAAAGACAAAUCUGCCACAAAGCUUGAGUGCAUCUUCGGAUGCAGAGGCGGCAGCCUUCGGUGGCGCGAUAUCGCCAACGUUCUCAACUAUGACACGCAAAACGCGUGCUCCGUUGAAUGGAGUUUAUCAUG | -0.559 |
